Laboratory results taken from article PMC11832422 (Nature Structural & Molecular Biology, 2024).
Values joined by “and” are separate entries in the source; they are usually repeats but may differ in a detail not shown here. Equal entries are not always repeated.

Target: the molecule itself
Test: cryo-EM structure

B1: CXCR4EM (human CXCR4 with N119S, hemagglutinin signal peptide, C-terminal monomeric enhanced GFP and FLAG tag) (receptor)
chain: EGISIYTSDNYTEEMGSGDYDSMKEPCFREENANFNKIFLPTIYSIIFLTGIVGNGLVILVMGYQKKLRSMTDKYRLHLSVADLLFVITLPFWAVDAVANWYFGNFLCKAVHVIYTVSLYSSVLILAFISLDRYLAIVHATNSQRPRKLLAEKVVYVGVWIPALLLTIPDFIFANVSEADDRYICDRFYPNDLWVVVFQFQHIMVGLILPGIVILSCYCIIISKLSHSKGHQKRKALKTTVILILAFFACWLPYYIGISIDSFILLEIIKQGCEFENTVHKWISITEALAFFHCCLNPILYAFLGAKFKTSAQHALTSVSRGSSLKILSKGKRGGHSSVSTESESSSFHSS
- stoichiometry N: 3 and 4
